What was measured:
[1] = target: Glutaconate CoA-transferase from A. fermentans (Acidaminococcus fermentans, UniProt Q59111+Q59112); details: Buckel et al. 1981; cited from earlier work
[2] = 2-Hydroxyglutarate dehydrogenase activity in recombinant E. coli BL21; format: biochemical, A. fermentans
Protocol: 2-Hydroxyglutarate dehydrogenase activity was measured at ambient temperature in cuvettes of 0.5 ml total volume containing 0.1 M Tris/HCl pH 8.0, 0.2 mM NADH and 2-hydroxyglutarate dehydrogenase at room temperature. After addition of 1 mM α-ketoglutarate, the absorbance decrease of NADH was monitored at 340 nm (ε=6.3 mM^−1 cm^−1) (Bresser J (1997) (R)-2-Hydroxyglutarat-Dehydrogenase aus Acidaminococcus fermentans. PhD Thesis, Philipps-Universitä t Marburg, Germany; Martins B M, Macedo-Ribeiro S, Bresser J, Buckel W, Messerschmidt A (2005) Structural basis for stereo-specific catalysis in NAD^+-dependent (R)-2-hydroxyglutarate dehydrogenase from Acidaminococcus fermentans. Febs J 272:269-281).
(§1) The genes were transformed into modified E. coli BL21-CodonPlus (DE3). An overnight anaerobic preculture (100 ml) of a fresh single colony was used to inoculate 1 liter Standard I medium, described above, containing antibiotics (carbenicillin, 100 μg·ml^−1; chloramphenicol, 50 μg·ml^−1) and grown at the same conditions. When the culture reached OD578=0.2, gene expression was induced with isopropyl-1-thio-β-D-galactoside, IPTG (240 mg·liter^−1) and anhydrotetracycline, AHT (200 μg·liter^−1). […]
(§2) In Table 9 the enzymatic activities are shown, which were measured in the recombinant E. coli strain.

[3] = Glutaconate CoA-transferase activity in recombinant E. coli BL21; format: biochemical, A. fermentans
Protocol: Glutaconate CoA-transferase activity assay was performed aerobically at room temperature. The increase of absorbance was followed at 412 nm, Δε=14 mM^−1 cm^−1.
The genes were transformed into modified E. coli BL21-CodonPlus (DE3). An overnight anaerobic preculture (100 ml) of a fresh single colony was used to inoculate 1 liter Standard I medium, described above, containing antibiotics (carbenicillin, 100 μg·ml^−1; chloramphenicol, 50 μg·ml^−1) and grown at the same conditions. When the culture reached OD578=0.2, gene expression was induced with isopropyl-1-thio-β-D-galactoside, IPTG (240 mg·liter^−1) and anhydrotetracycline, AHT (200 μg·liter^−1). Cells were harvested 3 hours after induction (at OD578=0.573), washed and suspended in 20 ml of buffer (50 mM MOPS, 5 mM MgCl2 and 2 mM DTT) under anoxic conditions. The induced E. coli cells were lysed by French press and cell debris was removed by ultracentrifugation at 100 000 g at 4° C. for 1 hour.
as §2

[4] = substrate: CC(C)(COP(=O)(O)OP(=O)(O)OC[C@H]1O[C@@H](n2cnc3c(N)ncnc32)[C@H](O)[C@@H]1OP(=O)(O)O)[C@@H](O)C(=O)NCCC(=O)NCCSC(=O)C(O)CCCC(=O)O; test: Substrate kinetics of 2-hydroxyglutaryl-CoA dehydratase with activator; format: biochemical, Clostridium symbiosum; details: other: substrate of the dehydratase; pH 7.0
Protocol: (§3) 2-Hydroxyglutaryl-CoA dehydratase activity was measured under anoxic conditions at ambient temperature in cuvettes of 0.5 ml total volume containing 50 mM Mops/KOH pH 7.0, 10 mM dithiothreitol, 5 mM MgCl2, 0.1 mM dithionite, 0.4 mM ATP, and […] with activator. After 10 minutes of incubation the reaction was started with 2 mM acetyl-CoA and 2 mM (R)-2-hydroxyglutarate. The increase of absorbance due to the formation of glutaconyl-CoA was followed at 290 nm (ε=2.2 mM^−1 cm^−1) (Kim J, Darley D J, Buckel W, Pierik A J (2008) An allylic ketyl radical intermediate in clostridial amino-acid fermentation. Nature 452:239-242).
(§4) a) 2-Hydroxyglutaryl-CoA dehydratase from Clostridium symbiosum and activator from Acidaminococcus fermentans

[5] = substrate: CC(C)(COP(=O)(O)OP(=O)(O)OC[C@H]1O[C@@H](n2cnc3c(N)ncnc32)[C@H](O)[C@@H]1OP(=O)(O)O)[C@@H](O)C(=O)NCCC(=O)NCCSC(=O)[C@H](O)CCC(=O)O; test: as above; format: biochemical, Clostridium symbiosum; details: other: substrate of the dehydratase; pH 7.0
Protocol: as §3, §4

[6] = substrate: CC(C)(COP(=O)(O)OP(=O)(O)OC[C@H]1O[C@@H](n2cnc3c(N)ncnc32)[C@H](O)[C@@H]1OP(=O)(O)O)[C@@H](O)C(=O)NCCC(=O)NCCSC(=O)/C=C/C=C/C(=O)O; test: as above; format: biochemical, Clostridium symbiosum; details: other: substrate of the dehydratase; pH 7.0
Protocol: as §3, §4

[7] = 2-Hydroxyglutaryl-CoA dehydratase activity in recombinant E. coli BL21; format: biochemical, C. symbiosum; details: recombinant E. coli BL21, with activator
Protocol: as §3, §1, §2

Molecule: CC(=O)O [acetate]
- Substrate of the enzyme [1]: acts on

Molecule: O=C(O)CCCCC(=O)O [adipate]
- Substrate of the enzyme [1]: acts on

Molecule: O=C(O)/C=C/CC(=O)O [(E)-glutaconate]
- Substrate of the enzyme [1]: acts on

Molecule: C=CC(=O)O [acrylate]
- Substrate of the enzyme [1]: acts on

Molecule: O=C(O)CC[C@@H](O)C(=O)O [(R)-2-hydroxyglutarate]
- Substrate of the enzyme [1]: acts on

Molecule: CCC(=O)O [propionate]
- Substrate of the enzyme [1]: acts on

B1: 2-Hydroxyglutarate dehydrogenase: enzyme from A. fermentans (hgdH) expressed in recombinant E. coli BL21 (protein)
chain: MKVLCYGVRDVELPIFEACNKEFGYDIKCVPDYLNTKETAEMAAGFDAVILRGNCFANKQNLDIYKKLGVKYILTRTAGTDHIDKEYAKELGFPMAFVPRYSPNAIAELAVTQAMMLLRHTAYTTSRTAKKNFKVDAFMFSKEVRNCTVGVVGLGRIGRVAAQIFHGMGATVIGEDVFEIKGIEDYCTQVSLDEVLEKSDIITIHAPYIKENGAVVTRDFLKKMKDGAILVNCARGQLVDTEAVIEAVESGKLGGYGCDVLDGEASVFGKDLEGQKLENPLFEKLVDLYPRVLITPHLGSYTDEAVKNMVEVSYQNLKDLAETGDCPNKIK
modifications: Acidaminococcus fermentans
notes: enzyme from A. fermentans (hgdH) expressed in recombinant E. coli BL21
- Activity, U [2]: 730 U
- Specific activity, U/mg [2]: 250 U/mg

B2: Glutaconate CoA-transferase: enzyme from A. fermentans (gctAB) expressed in recombinant E. coli BL21 (protein)
chain 1: LSKVMTLKDAIAKYVHSGDHIALGGFTTDRKPYAAVFEILRQGITDLTGLGGAAGGDWDMLIGNGRVKAYINCYTANSGVTNVSRRFRKWFEAGKLTMEDYSQDVIYMMWHAAALGLPFLPVTLMQGSGLTDEWGISKEVRKTLDKVPDDKFKYIDNPFKPGEKVVAVPVPQVDVAIIHAQQASPDGTVRIWGGKFQDVDIAEAAKYTIVTCEEIISDEEIRRDPTKNDIPGMCVDAVVLAPYGAHPSQCYGLYDYDNPFLKVYDKVSKTQEDFDAFCKEWVFDLKDHDEYLNKLGATRLINLKVVPGLGYHIDMTKEDK
chain 2: MADYTNYTNKEMQAVTIAKQIKNGQVVTVGTGLPLIGASVAKRVYAPDCHIIVESGLMDCSPVEVPRSVGDLRFMAHCGCIWPNVRFVGFEINEYLHKANRLIAFIGGAQIDPYGNVNSTSIGDYHHPKTRFTGSGGANGIATYSNTIIMMQHEKRRFMNKIDYVTSPGWIDGPGGRERLGLPGDVGPQLVVTDKGILKFDEKTKRMYLAAYYPTSSPEDVLENTGFDLDVSKAVELEAPDPAVIKLIREEIDPGQAFIQVPTEAK
modifications: Acidaminococcus fermentans
notes: enzyme from A. fermentans (gctAB) expressed in recombinant E. coli BL21
- Activity, U [3]: 0.71 U
- Specific activity, U/mg [3]: 0.25 U/mg

B3: 2-Hydroxyglutaryl-CoA dehydratase from Clostridium symbiosum and activator from Acidaminococcus fermentans ([Clostridium] symbiosum) (protein)
chain 1: MAKQVSPGVLALRKVVDDVHKEAREAKARGELVGWSSSKFPCELAAAFDLNVMYPENQAAGIAANRYGEMMCQAAEDLGYDNDICGYARISLAYAAGVRVSRKYDAETGEYIIDPATGKPLKDAEGNVVIDEATGKPKKDPKTQTPYLVLDNLLEIEALPDGPEKERRLEAISPIRQMRIPQPDFVLCCNNICNCMTKWYENIARMCNVPLIMIDIPYNNTVEVHDDNVKYVRAQFDKAIKQLEELTGKKFDEKKFEKACSNANRTAQAWLKVCDYLQYKPAPYSGFDLFNHMADVVTARARVEAAEAFELLADDLEETVKKGETTTPFPEKYRVMFEGIPCWPKLPNLFKPLKEHGVNVTAVVYAPAFGFVYNNIDEMARAYYKAPNSVCIEQGVDWREGICRDNKVDGVLVHYNRSCKPWSGYMAEMQRRFTEDLGVPCAGFDGDQADPRNFNAAQYETRVQGLVEAMEANKQAKEAK
chain 2: MSINALLDEFKVKAATPKQQLAEYKAQGKKVIGVLPYYAPEELVYAAGMVPMGIWGSNNKTISRAKEYCATFYCTIAQLALEMLLDGTMDQLDGIITPTICDTLRPMSQNFRVAMGDKMAVIFLAQPQNRFEDFGLQFSVDQYTNVKKELEKVAGKEITNEAIQDAIKVYNKSRAARRKFVELASAHCDVITPTKRSAVLKSFFFMEKPEYIEKLEELNAELEKLPVCDWQGTKVVTSGIICDNPKLLEIFEENNIAIAADDVGHESRSFRVDAPEDEADALMALAKQFANMDYDVLLYDPKSTENRRGEFIANMVKESGAQGLVLFMQQFCDPEEMEYPYLKKALNNAGIPHIKLGIDQQMRDFGQASTAIQAFADVLEMQK
- Km [4]: 100 µM
- kcat [4]: 17.4 s⁻¹
- Km [5]: 52 µM
- kcat [5]: 83 s⁻¹
- Km [6]: 570 µM
- kcat [6]: 1.9 s⁻¹

B4: 2-Hydroxyglutaryl-CoA dehydratase + activator: dehydratase (hgdAB) from C. symbiosum with activator (hgdC) from A. fermentans, expressed in E. coli BL21 (protein, listed as Clostridium symbiosum)
chain 1: B3 chain 1
chain 2: B3 chain 2
chain 3: MSIYTLGIDVGSTASKCIILKDGKEIVAKSLVAVGTGTSGPARSISEVLENAHMKKEDMAFTLATGYGRNSLEGIADKQMSELSCHAMGASFIWPNVHTVIDIGGQDVKVIHVENGTMTNFQMNDKCAAGTGRFLDVMANILEVKVSDLAELGAKSTKRVAISSTCTVFAESEVISQLSKGTDKIDIIAGIHRSVASRVIGLANRVGIVKDVVMTGGVAQNYGVRGALEEGLGVEIKTSPLAQYNGALGAALYAYKKAAK
modifications: Acidaminococcus fermentans
- Activity, U [7]: 0.23 U
- Specific activity, U/mg [7]: 0.80 U/mg

Reference: patent US8778645B2, “Method for the production of glutaconate” (BASF SE, priority 2009, dated 2014)
